Laboratory results: patent publication US20240010712A1 (published 2024)

Columns and labels:
[1] = target: SF370 bacterial surface (Streptococcus pyogenes strain SF370 (emm1 serotype)); test: binding to SF370 bacteria, fitted binding curve; unit printed nM-1; ±261; non-specific control IgG (Fc binding)
[2] = target: T1, M1 protein on the surface of Streptococcus pyogenes strain SF370 (Streptococcus pyogenes strain SF370 …); test: binding to SF370 bacteria, fitted binding curve; unit printed nM-1; ±2.9; F(ab')2
T1 chain: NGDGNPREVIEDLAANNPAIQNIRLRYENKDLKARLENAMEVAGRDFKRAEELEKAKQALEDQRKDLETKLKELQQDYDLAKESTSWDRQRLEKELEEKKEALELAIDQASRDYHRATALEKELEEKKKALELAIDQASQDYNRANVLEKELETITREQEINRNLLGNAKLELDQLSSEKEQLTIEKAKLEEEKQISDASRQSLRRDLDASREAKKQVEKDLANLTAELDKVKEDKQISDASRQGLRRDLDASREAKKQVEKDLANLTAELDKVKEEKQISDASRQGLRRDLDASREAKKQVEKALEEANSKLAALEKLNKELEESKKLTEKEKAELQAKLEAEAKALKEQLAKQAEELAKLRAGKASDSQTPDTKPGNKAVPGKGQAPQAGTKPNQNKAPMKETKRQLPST

[3] = target: T1, M1 protein on the surface of …; test: binding to SF370 bacteria, fitted binding curve; unit printed nM-1; ±30.3; Fab
[4] = target: T1, M1 protein on the surface of …; test: binding to SF370 bacteria, fitted binding curve; unit printed nM-1; ±1.2; F(ab')2
[5] = target: T1, M1 protein on the surface of …; test: as above

Molecule: Xolair IgG
- Kd [1]: 3170 nM

B1: Ab32 F(ab')2 fragments (IdeS-cleaved Ab32) (antibody, V domains shown)
VH: EVQLVESGGGLVRPGGSLRLSCVASGFMFNEYYMSWIRQAPGKGLEWISFISNAGTYTNYAESVKGRFTISRDNAKDSLYLEMNSLRGEDTAVYYCARQGFDTRGEDAFEIWGQGTMVTVSS
VL: EIVLTQSPATLSLSPGERATLSCRASQPLSGYLAWYQQKPGQAPRLLIYNASKRATGIPARFTGSGSGTDFTLTISSLESEDFAVYYCQQRSGWPSIFTFGPGTKVDIKR
- Kd [2]: 9.1 nM

B2: Ab49 single Fabs (IgdE-cleaved Ab49) (Fab, V domains shown)
VH: EVQLVESGGGLVQPGGSLRLSCAASGFTVSINYMSWVRQAPGKGLQWVSVIYSGGSTYYADSVKGRFTISRDNSKNTLYLQMNSLRAEDTAMYYCVRDSRFWGIFDYWGQGTLVTVSS
VL: EIVLTQSPATLSLSPGERATLSCRASQSVSSYLAWYQRKPGQAPRLLIYDASNRATGIPARFSGSGSGTDFTLTISSLEPEDFAVYYCQQRSNWPPTFGQGTKVEIKR
- Kd [3]: 208 nM

B3: Ab49 F(ab')2 fragments (IdeS-cleaved Ab49) (antibody, V domains shown)
VH: EVQLVESGGGLVQPGGSLRLSCAASGFTVSINYMSWVRQAPGKGLQWVSVIYSGGSTYYADSVKGRFTISRDNSKNTLYLQMNSLRAEDTAMYYCVRDSRFWGIFDYWGQGTLVTVSS
VL: EIVLTQSPATLSLSPGERATLSCRASQSVSSYLAWYQRKPGQAPRLLIYDASNRATGIPARFSGSGSGTDFTLTISSLEPEDFAVYYCQQRSNWPPTFGQGTKVEIKR
- Kd [4]: 12.3 nM
- Kd [5]: 12.3 nM
